The values that follow come from article PMC5893306 (Molecular pharmaceutics, 2018).

The nature of series [1]: Rat pharmacokinetics, IV and SC. The settings on record: for increase of IV half-life / reduction of clearance / extension of apparent half-life upon SC dosing: rats, compared to PIE12-trimer; for increase of IV half-life / reduction of clearance: IV; for extension of apparent half-life upon SC dosing: based on terminal-phase elimination. The class given is in vivo, Sprague Dawley rats.

Series [2] can be described thus: Solubility in standard aqueous buffers. The series is classed as physicochemical. The conditions noted are these: standard aqueous buffers (e.g., PBS, HEPES) at physiological pH.
Series [3] is described as follows: Rat pharmacokinetics, IV and SC.
A short description of series [4]: Non-human primate pharmacokinetics, IV and SC. The series is classed as in vivo, cynomolgus monkeys. The settings on record: male, cynomolgus monkey, plasma; for half-life: pH 7.4.
Setting [5] is: Sprague-Dawley, rat, plasma, iv.
Where [6] appears, read: Sprague-Dawley, rat, plasma, sc.
[7] abbreviates: male, rat, in vivo, iv, 1 mg/kg, pH 7.4.
Where [8] appears, read: male, rat, in vivo, sc, 1 mg/kg.
The mark [9] stands for this setting: male, rat, in vivo, iv, 1 mg/kg.

As a reminder, the Tmax is the time from dosing to the highest level. A word on the bioavailability: it is the share of a dose that reaches the circulation, judged against a reference dose that is usually intravenous. Lower therefore signals little systemic uptake. As a reminder, the half-life is how long it takes for the measured level to halve. A low value points to rapid decline. By AUC(0-inf) is commonly meant the area under the concentration-time curve extrapolated to infinity. A lower AUC(0-inf) goes with low exposure. What is called Cmax is the highest concentration seen after dosing.

*1 amine or outer side, *2 acyl side, *3 side chain or, on linkers, in order; H or OH if unused. Bridges are numbered along the chain shown (N, C = ends). Roman numbers before positions name the chains, in order. [ ]: non-standard residue; d: D form. X1 = CC(C)CCC[C@@H](C)[C@H]1CC[C@H]2[C@@H]3CC=C4C[C@@H](OC(=O)NCCOCCOCCOCCOCCC(=O)NCCOCCOCCOCCOCCOCCOCCOCCOCCOCCOCCOCCOCCOCCOCCOCCOCCOCCOCCOCCOCCOCCOCCOCCOCCOCCOCCOCCOCCC(=O)NC(CCC(=O)[*:1])(CCC(=O)[*:2])CCC(=O)[*:3])CC[C@]4(C)[C@H]3CC[C@]12C; PEG4 = NCCOCCOCCOCCOCCC(=O)O

As for `CC(=O)N[C@H](Cc1c[nH]cn1)C(=O)N1CCC[C@@H]1C(=O)N[C@@H]1CSSC[C@H](C(=O)N[C@H](CCC(=O)O)C(=O)N[C@H](CC(C)C)C(=O)NCC(=O)N[C@H](CCCCNC(=O)CCOCCOCCOCCOCCNC(=O)CCOCC(COCCC(=O)NCCOCCOCCOCCOCCC(=O)NCCCC[C@@H](NC(=O)CNC(=O)[C@@H](CC(C)C)NC(=O)[C@@H](CCC(=O)O)NC(=O)[C@H]2CSSC[C@@H](NC(=O)[C@H]3CCCN3C(=O)[C@@H](Cc3c[nH]cn3)NC(C)=O)C(=O)N[C@H](CC(=O)O)C(=O)N[C@H](Cc3ccc(O)cc3)C(=O)N3CCC[C@@H]3C(=O)N[C@H](CCC(=O)O)C(=O)N[C@H](Cc3c[nH]c4ccccc34)C(=O)N[C@H](CCC(N)=O)C(=O)N[C@H](Cc3c[nH]c4ccccc34)C(=O)N[C@H](CC(C)C)C(=O)N2)C(N)=O)(COCCC(=O)NCCOCCOCCOCCOCCC(=O)NCCCC[C@@H](NC(=O)CNC(=O)[C@@H](CC(C)C)NC(=O)[C@@H](CCC(=O)O)NC(=O)[C@H]2CSSC[C@@H](NC(=O)[C@H]3CCCN3C(=O)[C@@H](Cc3c[nH]cn3)NC(C)=O)C(=O)N[C@H](CC(=O)O)C(=O)N[C@H](Cc3ccc(O)cc3)C(=O)N3CCC[C@@H]3C(=O)N[C@H](CCC(=O)O)C(=O)N[C@H](Cc3c[nH]c4ccccc34)C(=O)N[C@H](CCC(N)=O)C(=O)N[C@H](Cc3c[nH]c4ccccc34)C(=O)N[C@H](CC(C)C)C(=O)N2)C(N)=O)NC(=O)CCOCCOCCOCCOCCOCCOCCOCCOCCOCCOCCOCCOCCOCCOCCOCCOCCOCCOCCOCCOCCOCCOCCOCCOCCNC(=O)CCN2C(=O)CC(S[C@H]3CC[C@@]4(C)C(=CC[C@H]5[C@@H]6CC[C@H]([C@H](C)CCCC(C)C)[C@@]6(C)CC[C@@H]54)C3)C2=O)C(N)=O)NC(=O)[C@@H](CC(C)C)NC(=O)[C@@H](Cc2c[nH]c3ccccc23)NC(=O)[C@@H](CCC(N)=O)NC(=O)[C@@H](Cc2c[nH]c3ccccc23)NC(=O)[C@@H](CCC(=O)O)NC(=O)[C@H]2CCCN2C(=O)[C@@H](Cc2ccc(O)cc2)NC(=O)[C@@H](CC(=O)O)NC1=O` (stereo partly drawn) [Chol-PIE12-trimer], in series [1] (setting [5]), the Vd was 0.134 L/kg. Further, in series [1] (setting [6]), the Tmax stood at 4 h and the bioavailability stood at 73%. Moreover, in series [1], the “increase of IV half-life” value was 3 fold, the reduction of clearance is 14-18 fold and the “extension of apparent half-life upon SC dosing” value was ~ 3 fold. The solubility in series [2] is ~ 40 mg/ml. In addition, in series [3] (setting [7]), the half-life was 1.6 h. Besides, the bioavailability in series [3] (setting [8]) is 51%. Besides, in series [3] (rat, in vivo, iv, 1 mg/kg), the C0 amounted to 4530 nM.
In the case of `CCCCCCCCCCCCCCCC(=O)N[C@H](CSC1CC(=O)N(CCC(=O)NCCOCCOCCOCCOCCOCCOCCOCCOCCOCCOCCOCCOCCOCCOCCOCCOCCOCCOCCOCCOCCOCCOCCOCCOCCC(=O)NC(COCCC(=O)NCCOCCOCCOCCOCCC(=O)NCCCC[C@@H](NC(=O)CNC(=O)[C@@H](CC(C)C)NC(=O)[C@@H](CCC(=O)O)NC(=O)[C@H]2CSSC[C@@H](NC(=O)[C@H]3CCCN3C(=O)[C@@H](Cc3c[nH]cn3)NC(C)=O)C(=O)N[C@H](CC(=O)O)C(=O)N[C@H](Cc3ccc(O)cc3)C(=O)N3CCC[C@@H]3C(=O)N[C@H](CCC(=O)O)C(=O)N[C@H](Cc3c[nH]c4ccccc34)C(=O)N[C@H](CCC(N)=O)C(=O)N[C@H](Cc3c[nH]c4ccccc34)C(=O)N[C@H](CC(C)C)C(=O)N2)C(N)=O)(COCCC(=O)NCCOCCOCCOCCOCCC(=O)NCCCC[C@@H](NC(=O)CNC(=O)[C@@H](CC(C)C)NC(=O)[C@@H](CCC(=O)O)NC(=O)[C@H]2CSSC[C@@H](NC(=O)[C@H]3CCCN3C(=O)[C@@H](Cc3c[nH]cn3)NC(C)=O)C(=O)N[C@H](CC(=O)O)C(=O)N[C@H](Cc3ccc(O)cc3)C(=O)N3CCC[C@@H]3C(=O)N[C@H](CCC(=O)O)C(=O)N[C@H](Cc3c[nH]c4ccccc34)C(=O)N[C@H](CCC(N)=O)C(=O)N[C@H](Cc3c[nH]c4ccccc34)C(=O)N[C@H](CC(C)C)C(=O)N2)C(N)=O)COCCC(=O)NCCOCCOCCOCCOCCC(=O)NCCCC[C@@H](NC(=O)CNC(=O)[C@@H](CC(C)C)NC(=O)[C@@H](CCC(=O)O)NC(=O)[C@H]2CSSC[C@@H](NC(=O)[C@H]3CCCN3C(=O)[C@@H](Cc3c[nH]cn3)NC(C)=O)C(=O)N[C@H](CC(=O)O)C(=O)N[C@H](Cc3ccc(O)cc3)C(=O)N3CCC[C@@H]3C(=O)N[C@H](CCC(=O)O)C(=O)N[C@H](Cc3c[nH]c4ccccc34)C(=O)N[C@H](CCC(N)=O)C(=O)N[C@H](Cc3c[nH]c4ccccc34)C(=O)N[C@H](CC(C)C)C(=O)N2)C(N)=O)C1=O)C(=O)O` (stereo partly drawn) [Palm-PIE12-trimer], in series [1] (setting [5]), the Vd was 0.144 L/kg and the half-life is 1.8 h. For the same compound, in series [1] (setting [6]), the time of peak concentration (Tmax) was found to be 1 h and the half-life was 2.2 h. In addition, in series [1], the “increase of IV half-life” value is on record as 3 fold, the reduction of clearance is reported as 14-18 fold and the “extension of apparent half-life upon SC dosing” value was ~ 3 fold.
In series [4] (iv, 1 mg/kg), “I: Ac-[dH][dP][dC][dD][dY][dP][dE][dW][dQ][dW][dL][dC][dE][dL]G[PEG4][dK]-NH2 / II: Ac-[dH][dP][dC][dD][dY][dP][dE][dW][dQ][dW][dL][dC][dE][dL]G[PEG4][dK]-NH2 / III: Ac-[dH][dP][dC][dD][dY][dP][dE][dW][dQ][dW][dL][dC][dE][dL]G[PEG4][dK]-NH2 (disulfide I:3-I:12, II:3-II:12, III:3-III:12; linker I:17-II:17-III:17 via X1) [CPT31]” had an area under the curve AUC(0-inf) of 11.6 µM·h, a C0 of 3110 nM, a Vd of 0.097 L/kg and a clearance of 0.158 mL/min/kg. In addition, in series [4] (iv, 1 mg/kg), the half-life was 7.4 h. In series [4] (sc, 3 mg/kg), the area under the curve AUC(0-inf) stood at 29.4 µM·h, the peak level (Cmax) was 922 nM, the Tmax stood at 8 h and the bioavailability is 80%. Further, the half-life in series [4] (sc, 3 mg/kg) was 18.8 h. Besides, the solubility in series [2] is listed as ~ 40 mg/ml. In series [3] (setting [9]), the AUC(0-inf) is 3.84 µM·h, the C0 was found to be 2950 nM, the Vd was 0.134 L/kg and the clearance is 0.483 mL/min/kg. For the same compound, in series [3] (setting [7]), the half-life was 3.3 h. Also, in series [3] (setting [8]), the AUC(0-inf) was determined as 2.11 µM·h, the concentration peaked (Cmax) at 261 nM, the time to peak (Tmax) stood at 2 h and the half-life was 5.4 h. In series [3] (rats, IV, compared to Chol-PIE12-trimer), the “prolongation of IV half-life” value is on record as 2 fold. Also, the “prolongation of SC half-life” value in series [3] (rats, SC, compared to Chol-PIE12-trimer) worked out at 1.4 fold.
